Assay results published in the DeepSol protein solubility set.

Assay: soluble on expression in E. coli; label from the status in PepcDB or PDB records

Sequence	soluble on expression in E. coli
MSVVLGENELVIRGCILYEVLNKKPIQESYENFCRNVGNDVMSYNDFDFWFYRFYNGNHDLHYDRSADPASPLLSNMPLNIIDEVLNRMEILNLLVLMKVSRNFRKVVQNMKMVFDCIEVDFDEHLAITYNSRHKIKYRPNDTAQYSPFRQEPTCTCGRRIRTSDEDNRKEFFVTDEDYIELGVKDLKLIMENQNVQLKKFQFSNGSNQDTQKKFIDRAEIAFKSAKSSTRTVEAHYNSLAEIAQLLPIFHAGKLEEINFKQGARTDGYEQLVGLEQWKNARKFDGFWSLNVPIEHCLHFECFKDHFVRFKEEDAMKLRYMLDRSTNFGYAEITIDPMNVSLLKRAFDVNNDNKFEFVYQSPDNGSFEVHCALRVLYITKSGYKFKYNNKSASTFYKPPPIPAPPALFLRDYQFFDPRPRMPTDRSRYRPF	not soluble
MSWFLLNRNLTLLEPYDWKLSRTVLRGERGSNASDLPGKAIAKEGMADYIRYLFKTVRKFYGEAVVVTQEVDDIISSPIVKESIVNNSDCKILLDQRKYLNKFSQIQSLLGLTDKEKAQILSVNMSNDPRRKYKEVWFGLGGVQSTVYATEVSLEEYLCYSTEESEKVELEGLTKELGGNIELAIRRLAEKKRNQNNEIP	not soluble
MSWWKRIFSRSESSTTESNSASSLPAADLDDDLLVEVKNLVAITGPKMPYELARLLKISHARATRLAAAANAQNPTPSRARTSDAQAQQPAAASPKPPAEPVAAEPKKKRAKKATPVEAGLPPLTGKITGGHACAFDVVGESYYQPALRRLRNGRHMATDNDFVADIVAEPDNPHDPNACAVYIEGFKVGYLPRDAAADFQQQVADMGVTGTWRLQTKAKLSGGWGDRPMVGVLLSLPKSLEHHHHHH	not soluble
MSWWQDMDQRGGVSSPSGALASAEPAPASVTLAELLHLVQKGQEVPGLEKRHITATHGEPTASLLPRRPKPWEDAGSAASPCTIALDTRTQPPTIEERSRGSPAAQLDGGPRVS	soluble
MSYAYLFKYIIIGDTGVGKSCLLLQFTDKRFQPVHDLTIGVEFGARMVTIDGKQIKLQIWDTAGQESFRSITRSYYRGAAGALLVYDITRRDTFNHLTSWLEDARQHSNSNMVIMLIGNKSDLEARREVKREEGEAFAREHGLVFMETSAKTAANVEEAFIDTAKEIYRKIQEGVFDINNEANGIKLGPQHSPSSPNSPGGNATGGLGGGSGCC	not soluble
MSYFGGLISTLFERRYQQALSDEVDSRTTCELCEALLSSHGEVSGVTLARNLLDRYAAMTEAEKTALFGFMAHDLEIDPDAVTHTLEAYKNNPGKDTYRAFAAACEPRRQELARRLNQVPGATGQLVQMRKDLLRMMKDHPDLEPVDVDFKHLFSSWFNRGFLVLRPIDWSSPANILEQIIAYEAVHEIDSWDELRRRLQPSDRRCFGFFHPSMADEPLIFVEVALTEGVPSSVQDLLADERDVITAQDADTAVFYSISNCQSGLAGISFGNSLIKQVVADLAKDLPGLTTFVTLSPIPGLNRWLQDADIDALKDADTQALAAHYLLEAKRSDGMPFDPVARFHLGNGALVHAVHAEADVSPNGRKQSNGAMVNYLYDLSQISQNHEKFVGDKIVVASTTVKALSGSVTTSLGTAAAAAALEHHHHHH	soluble
MSYITKQDKVIAEAIEREFQRQNSNIELIASENFVSEAVMEAQGSVLTNKYAEGYPGRRYYGGCEFVDVTESIAIDRAKALFGAEHVNVQPHSGSQANMAVYLVALEMGDTVLGMNLSHGGHLTHGAPVNFSGKFYNFVEYGVDKDTERINYDEVRKLALEHKPKLIVAGASAYSRTIDFKKFKEIADEVNAKLMVDMAHIAGLVAAGLHPNPVEYADFVTTTTHKTLRGPRGGMILCKEEYKKDIDKTIFPGIQGGPLEHVIAAKAVAFGEALENNFKTYQQQVVKNAKVLAEALINEGFRIVSGGTDNHLVAVDVKGSIGLTGKEAEETLDSVGITCNKNTIPFDQEKPFVTSGIRLGTPAATTRGFDEKAFEEVAKIISLALKNSKDEEKLQQAKERVAKLTAEYPLYQ	not soluble
MSYKAYPFFRDILINECIYFASKNKKLVRLNYKSEAYVGVWTEESVAVSFLTSRDIPFDKVVKMDVDRFATYELDELFDEQDHIIMNQTMEEEGHLLNVVAVTQEVMTELDKIRIKEFVQDVAKYDEVYGLTKKGSKQFILISENDSDEKKPHIMPVWSIKNRALKVRDEDFEECDLITIEGSVFGEWLDELRDDHKAVAIDLKTGVVGTIVSAQKLSNELTF	not soluble
MSYKSSKYNLFIERKREVISFNTLRNIIAKCDIETKEILENETFNKLPPDLLNKMISEGIIVNKELNELNIIKLTRMMYYGQLLHYLSIGLTLVMTYSCNLRCPYCYEGDIKSKGGLLTREKIETILTFASAHAQGDKKPTISVSFYGGEPLLNWKGCEYTLQRLEEMKENKEIRDYSAGFVTNGTLINEDIVDAINNYNVYSMQITLDGPKEIHDKRRIKSNGEGTFDQIIENIKLLNRRIANKNFHLALRINVDKTNYKKIPELLDFLKDEGLGGIPISYGIVRGNLPYCSSNCGVYFSGSDLQKYLPYLWKEAYRRGFEVWTRPNLRFIYCGYDNPFGYVIDPELKVYPCWEMVGIEDYQIGEIQKDGTMKITPFYYDAKSRDPTEYDECKNCKLLPVCMGGCAMESIRKNGHPNGPGCDINKYIWKEGLKFYLMKKYPNLFSKETLIENLGRVPNRDEQTKNRIMFNT	not soluble
MSYLVVTIKVILITGMPGSGKSEFAKLLKERGAKVIVMSDVVRKRYSIEAKPGERLMDFAKRLREIYGDGVVARLCVEELGTSNHDLVVFDGVRSLAEVEEFKRLLGDSVYIVAVHSPPKIRYKRMIERLRSDDSKEISELIRRDREELKLGIGEVIAMADYIITNDSNYEEFKRRCEEVTDRVLKNG	not soluble
MSYQPPPNGQMPGYPQQQFNQQPQFQSNGFPPPAAPQKPAQVPGGFPPPHQQPNGQYQNGGLNGNSSHLAQSVNNMSIGARSTPSAQPPNPYQPAGYPGAPPQQLQQVQRQQTPQQFAAVPQSVQAPSATPAGPLQAMQQAPAPTPGIPQMNQGAHLPPQPHQIHQPTPLRPQIPGFPQAGGSPSSFQAGAPTSQNVQGYPGGPSSAPSAYPGAPQVPQAPNSFIPPGTGGFPPGQPTAGSFPPGPQVPGSYPSGPADIPQGPGMPRAFPPGASAPVAPGMPGAFPPGQGGPGMPGSFPPGAPGPGGPGMPGSFAPGAPGPGGPGGYPSGGPGMPGMQGGYPGGPPQQRQQRLDPNMMPSAVQVIDDDSSTRSGIFPTGYPNAELPPLVSTNSFAQDQGNCNPKFMRSTLYTAPQTNDILKASQIPLAVVISPFASLTEYEKEPPVVDLGPQGPIRCQRCKAYICPFMEFQDGGRSFRCPFCHARTSVEDAYFAHLDHTGRRTDIEMRPELCLGAYDLVATKQYCKNGIAPKEPAFIFMIDVSYNAISNGMLPILCQNLEKVLRNLPRESGQLESSMRIGLATFDQAVHFFDISSASPKMLVMSDVQEPFVPMVDGLLLPYNEALPGLRAALAEIPKLFSQSKTTETILQPVVQAGLDALKCADRAGKVILFSTVLPTYDAPGKLKSKNDRSLLGTDKEKNALVPQEDSYTKLGEQCVKSGVTVDLFLFPNAFIDVATIGQLSAVTGGSIFKFQYFSADKDGVRMLNELERHVSKKIAFDCMARVRTSTGIRPITFTGSFYMENSTDLELATLDESKAFITEIKHDDSLKDPASFIQTAVLYTSMTGQRRLRILNLCLPVTADYNQVYRLADPEALTAFMLKQAVQLNRDKGSSEMRESLSSRCAQFLATYREKCSEGAPLGQLILPESLKLMPLYVNSILKNDAISGGSEMTVDDKVWQMELIRGLRTENVMPLIYPRVMPISDLQINDTEEMKDLPKPVRASSEFLENSKAYIIDNGVILFVWVGSACPQTWVQDVFGVGATNQIDTESGTIPEKDNGHSRALRRAIQLLPRGIRERKTFVVVEKSGLEPWMKKFLVEDKAGPANMSYVDYLVDIHRKIRDLIS	not soluble
MSYRQMLIHRCDIYHEAAQAPSAGRFGIPADRLQPVISYPDTPDEQDVPCYFTEKTQQLIQEEPDQTVYHSFLVHFPLSADIRVNDKIIWENHKYILKLPKRIRHHHWEVVAVRDESLLEHHHHHH	soluble
MTAASIDRELVPWSDPEFRNNPYPWYRRLQQDHPVHKLEDGTYLVSRYADVSHFAKLPIMSVEPGWADAGPWAVASDTALGSDPPHHTVLRRQTNKWFTPKLVDGWVRTTRELVGDLLDGVEAGQVIEARRDLAVVPTHVTMARVLQLPEDDADAVMEAMFEAMLMQSAEPADGDVDRAAVAFGYLSARVAEMLEDKRVNPGDGLADSLLDAARAGEITESEAIATILVFYAVGHMAIGYLIASGIELFARRPEVFTAFRNDESARAAIINEMVRMDPPQLSFLRFPTEDVEIGGVLIEAGSPIRFMIGAANRDPEVFDDPDVFDHTRPPAASRNLSFGLGPHSCAGQIISRAEATTVFAVLAERYERIELAEEPTVAHNDFARRYRKLPIVLS	soluble
MTAIRFDHVDVIFGTHTKEALKLLDQGLGRAEILKRTGQVLGVEDACLDVNRGEICVLMGLSGSGKSSLLRCINGLNKVSRGKLLIEHEGSQVDIANCSPATLKAMRTKRIAMVFQKFALMPWLTVAENVGFGLEMQGRPAAERKKLIDEKLELVGLSQWRDKRPDSLSGGMQQRVGLARALAMDGDILLMDEPFSALDPLIRQQLQDELLVLQRQLHKTIVFVSHDLDEALKIGTRIAIMKDGRIIQHGKPEEIVLSPADDYVRTFVAHTNPLNVLCGQSLMRGLDQCIRQNDEICFDQGRDCWIGLSEGDVLKGARQGSNVIDLQRWRQGDPVEKLRREPTLVDVSIRMRDALQIRYQTGHKLVLQEQDRVVGVLGDSELYHALLGKN	not soluble
MTAKKEHLFIVFENLIKIKSECSCEIFSECGISDITVKQIGYLKAIDEHGEVTFSRLAKITKNSKPTITEMVNKFVRMECVYREKCPEDGRIFYIRLTEKGQRIARAEESSLLRVIEKMAESLNEKEIETLIRILGKVR	not soluble
MTAPLIRVSRKRTADPHDALILHTKRAKHGGNPLVFTLYKAAGNDLELNGARVLDLPTQEHGMELADEENPLGFVKDEAVGLVGEVEKNVKKPAEQVSLNGRLLQPVTDGGGAAAGSSDDVVYDYYAIHEKRGNPEVVGNLEQDIEGADFRFAKRDELDLGDEDDSDGPPADDEDDSNDEDNWRNDYPDEESYDEDSDNGDPYGISEPDHWHAGEEAYSDESFHRRLQNMDLNDERYEAFYEGDETDEDAD	soluble
MTAPPPPLVELPPGSMVERWSITKKLGEGGCGAVYLCTDATGKYALKVEGISEAMQVLKMEVLVLGELTKRGSRHFCKIEDKGRYGSFNYVVMTLVGKSLQDLRKGTAQQCLSLACSLSVGIQSLEALEDLHNIGYLHRDVKPGNYTIGRAELNELRKVYILDFGMARKFTDNNGVIRKPRAAAGFRGTVRYAPIACHKNQELGRKDDVEVWLYMQVELTVGRVPWKEITDMNAVGQAKQAIRNTPEKMFVFPCPANELKEIMKMVDSWDYFADPNYADCYRLMKQTLANCGKPEYPYDWEPGMPLNYMVK	not soluble
MTASRPAFLHLSPADTVGIALRALPSGEEALGVTLRADVPLGHKFAVVAMPAGTAVVKYGQVMGVATADIAPGDHVHSHNCAMSDSHSNRADAKGTLHAAPGRQTFQGYLRPDGRVGTRNYIGIMASVNCSSTVCNAIAEAANRTLLPRFPGIDGFAPIVHDQGCGMASAGEGFDALVRVLKGYRDHPNFGGVLIVGLGCEVNQLTLYKRTDWTEERIGIFNIQDVGGSASAVRRALELLEPICAAADQDRRSEQPVSKLVLGMQCGGSDGFSGITANPALGVASDMLVAAGGTSILSETPEIYGAEHLLIARADAETGRRIEGMIDWWRDYAAKNGASLDNNPSPGNKRGGLTTILEKSLGAVAKGGLSPLAGAFAYAEPIRIPGLVYMDSPGYDPVAATGQVASGANLIAFTTGRGSCFGAKPAPSIKLASNSDLARRMPEDMDIDCGVVVEEGVSLEEMGRRIYDLLLDTASGKRSKSEEFGYGDNEFVPWKIGATL	not soluble
